Reference: patent publication US20130130315A1 (ADVANCECOR, published 2013)
Several values for one entry are separate records, joined by “and”; a condition that tells them apart may be missing. Identical values can stand only once.

How the values were obtained:
CD133 protein [1] = biological target: T1, CD133 protein (UniProt O43490 20-865, limits assumed); test: FACS of phage dilution series on AC133/293 cells
T1 construct: whole, on cells; Presented on AC133/293 cells: paraformaldehyde-fixed in the cellular ELISA, unfixed in the phage FACS; also called CD133 antigen; AC133
T1 sequence (looked up): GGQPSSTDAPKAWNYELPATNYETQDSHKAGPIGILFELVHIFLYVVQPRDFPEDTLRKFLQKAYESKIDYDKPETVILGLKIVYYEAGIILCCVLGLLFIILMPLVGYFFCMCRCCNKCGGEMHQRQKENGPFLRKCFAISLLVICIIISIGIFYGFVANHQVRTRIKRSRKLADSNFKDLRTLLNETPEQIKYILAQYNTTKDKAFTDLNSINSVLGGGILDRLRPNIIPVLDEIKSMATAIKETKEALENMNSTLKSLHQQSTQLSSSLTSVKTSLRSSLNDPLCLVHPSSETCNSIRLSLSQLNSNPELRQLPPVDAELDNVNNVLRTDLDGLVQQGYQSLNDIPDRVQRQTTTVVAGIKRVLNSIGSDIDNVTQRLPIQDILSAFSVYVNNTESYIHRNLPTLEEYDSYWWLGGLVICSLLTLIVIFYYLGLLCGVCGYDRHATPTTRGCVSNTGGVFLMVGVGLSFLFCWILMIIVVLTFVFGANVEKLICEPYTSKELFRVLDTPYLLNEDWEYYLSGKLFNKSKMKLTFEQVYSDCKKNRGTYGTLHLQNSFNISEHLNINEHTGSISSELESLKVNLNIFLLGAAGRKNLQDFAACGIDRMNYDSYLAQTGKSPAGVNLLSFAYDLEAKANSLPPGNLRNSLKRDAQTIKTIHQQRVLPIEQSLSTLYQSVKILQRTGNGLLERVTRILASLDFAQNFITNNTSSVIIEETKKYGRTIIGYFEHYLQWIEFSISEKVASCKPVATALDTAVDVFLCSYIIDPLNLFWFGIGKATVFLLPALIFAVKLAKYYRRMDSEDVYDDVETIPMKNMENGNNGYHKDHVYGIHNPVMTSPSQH

CD133 protein [2] = biological target: T2, CD133 protein (UniProt O43490 20-865); test: FACS; panel A, Median FI
T2 chain: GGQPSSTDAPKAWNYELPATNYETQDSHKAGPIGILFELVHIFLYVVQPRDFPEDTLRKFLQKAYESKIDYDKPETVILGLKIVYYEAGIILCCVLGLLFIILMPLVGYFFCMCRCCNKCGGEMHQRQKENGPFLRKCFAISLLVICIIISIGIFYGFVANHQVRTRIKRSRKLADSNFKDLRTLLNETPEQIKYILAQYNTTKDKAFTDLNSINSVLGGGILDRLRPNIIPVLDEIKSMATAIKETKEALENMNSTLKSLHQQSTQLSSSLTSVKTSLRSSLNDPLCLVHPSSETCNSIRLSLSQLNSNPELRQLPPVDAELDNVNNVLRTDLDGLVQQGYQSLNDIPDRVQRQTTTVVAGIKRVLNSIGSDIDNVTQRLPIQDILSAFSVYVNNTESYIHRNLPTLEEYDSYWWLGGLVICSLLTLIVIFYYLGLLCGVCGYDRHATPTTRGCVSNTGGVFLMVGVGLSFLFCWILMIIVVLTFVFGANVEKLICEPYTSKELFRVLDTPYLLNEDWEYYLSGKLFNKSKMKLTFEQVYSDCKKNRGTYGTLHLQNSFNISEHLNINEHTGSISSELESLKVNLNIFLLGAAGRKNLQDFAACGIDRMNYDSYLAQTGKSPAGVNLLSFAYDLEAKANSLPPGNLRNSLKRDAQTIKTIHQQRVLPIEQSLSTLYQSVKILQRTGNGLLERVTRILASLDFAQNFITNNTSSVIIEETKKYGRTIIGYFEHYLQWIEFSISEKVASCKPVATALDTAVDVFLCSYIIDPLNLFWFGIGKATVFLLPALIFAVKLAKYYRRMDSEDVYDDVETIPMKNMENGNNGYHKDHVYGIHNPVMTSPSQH

CD133 protein [3] = biological target: T2, CD133 protein; test: FACS; panel A, Geo-Mean FI
CD133 protein [4] = biological target: T1, CD133 protein; test: cellular ELISA on fixed AC133/293 cells
Procedure: 1×10⁵ cells in 0.2 ml of medium were added to each well and incubated o/n at 37° C., 5% CO₂ to allow cells to attach to the surface of the plate. The next day wells were washed once with 0.2 ml PBS and fixed with 0.1 ml 2% Paraformaldehyde (in PBS, pH 7.4) for 10-20 min at RT. Wells were washed with PBS-T (PBS+0.1% Tween-20) and blocked with either 1× RotiBlock or 3% milk in PBS-T for 1 hour at RT. After washing with PBS-T, serial dilutions of the respective antibody were added to the wells and incubated at RT for at least one hour while shaking. After washing with PBS-T, 0.1 ml of StrepMAb-Classic-HRP (1:10000 in PBS-T, lba BioTagnology, Göttingen, Germany) or of horseradish peroxidase linked anti-mouse IgG (1:10000 in PBS-T, Dianova, Hamburg, Germany) was added and incubated at RT for one hour with shaking. After washing with PBS-T, 0.1 ml of 1-Step Ultra TMB-ELISA substrate (Thermo Scientific, Braunschweig, Germany) was added and incubated until an adequate blue staining developed. To stop the reaction 0.1 ml 1 M H₂SO₄ was added to each well and absorbance at 450 nm and 595 nm as a reference was measured with an infinite F200 plate reader (TECAN, Männedorf, Switzerland). […] Signals were detected using an anti-mouse IgG-HRP antibody (1:10000 in PBS-T, Dianova, Hamburg, Germany). […]

B1: phage clone 27 (humanized single chain antibody derived from phage clone 27) (scFv)
scFv: DIQMTQSPKSLSMSVGDRVTITCKASENVDTYVSWYQQKPGKAPKVLIYGASNRYTGVPSRFSGSGSATDFTLTISSLQPEDFATYHCGQSYRYPLTFGQGTKVEIKGGGGSGGGGSGGGGSEVQLVQSGAEVKKPGASVKVSCKASGYSFTNYYVHWVKQAPGQGLEWMGYVDPFNGDFNYNQKFKDRVTLTVDTSTPTAYMELSSLTPEDTAVYYCARGGLDWYDTSYWYFDVWGQGTLVTVSS
notes: not shown: fusion to the phage coat protein; display format not described
Which Kd (CD133 protein [1]) does the source give for B1 here?
Its Kd is 50.8 pM.

B2: phage clone 29 (humanized single chain antibody derived from phage clone 29) (scFv)
scFv: DIQMTQSPRSLSVSVGDRVTITCKASENVDTYVSWYQQKPGKAPKVLIYGASNRYTGVPSRFTGSGSATDFTLTISSLQPEDFATYYCGQSYRYPLTFGQGTKVEIKGGGGSGGGGSGGGGSEVQLVQSGAEVKKPGASVKVSCKACGYSFTNYYVHWVKQAPGQGLEWMGYVDPFNGDLNYNQKFKDRVTLTVDTSTSTAYMELSSLTSEDTAVYYCARGGLHCYDTSYWYFDVWGQGTLVTVSS
notes: as for B1
For B2, which Kd (CD133 protein [1]) is on record?
The Kd was 103 pM.

B3: phage m1h harboring the mouse single chain sequence (scFv)
scFv: DILMTQSPKSMSMSLGERVTLSCKASENVDTYVSWYQQKPEQSPKVLIYGASNRYTGVPDRFTGSGSATDFSLTISNVQAEDLADYHCGQSYRYPLTFGAGTKLELKGGGGSGGGGSGGGGSEVQLQQSGPDLMKPGASVKISCKASGYSFTNYYVHWVKQSLDKSLEWIGYVDPFNGDFNYNQKFKDKATLTVDKSSSTAYMHLSSLTSEDSAVYYCARGGLDWYDTSYWYFDVWGAGTAVTVSS
notes: also called phage harboring the original mouse single chain antibody; not shown: fusion to the phage coat protein; display format not described
Which results are given for B3?
Kd (CD133 protein [2]): 18.5 pM; Kd (CD133 protein [1]): 25.6 pM and 26.9 pM; Kd (CD133 protein [3]): 17.4 pM

B4: W6B3H10 monoclonal antibody (antibody, V domains shown)
VH: EVQLQQSGPDLMKPGASVKISCKASGYSFTNYYVHWVKQSLDKSLEWIGYVDPFNGDFNYNQKFKDKATLTVDKSSSTAYMHLSSLTSEDSAVYYCARGGLDWYDTSYWYFDVWGAGTAVTVSS
VL: DILMTQSPKSMSMSLGERVTLSCKASENVDTYVSWYQQKPEQSPKVLIYGASNRYTGVPDRFTGSGSATDFSLTISNVQAEDLADYHCGQSYRYPLTFGAGTKLELK
notes: Mouse monoclonal antibody from hybridoma clone W6B3H10 (subclone of W6B3C1), with gamma heavy chain and kappa light chain; also called W6B3H10 mAb; parental mAb
With B4 as the binder, how does the EC50 (CD133 protein [4]) read?
The EC50 was 120 pM.
